Data set [1] has as its target T1, RFX1 (Homo sapiens, UniProt P22670 1-979).
T1 sequence: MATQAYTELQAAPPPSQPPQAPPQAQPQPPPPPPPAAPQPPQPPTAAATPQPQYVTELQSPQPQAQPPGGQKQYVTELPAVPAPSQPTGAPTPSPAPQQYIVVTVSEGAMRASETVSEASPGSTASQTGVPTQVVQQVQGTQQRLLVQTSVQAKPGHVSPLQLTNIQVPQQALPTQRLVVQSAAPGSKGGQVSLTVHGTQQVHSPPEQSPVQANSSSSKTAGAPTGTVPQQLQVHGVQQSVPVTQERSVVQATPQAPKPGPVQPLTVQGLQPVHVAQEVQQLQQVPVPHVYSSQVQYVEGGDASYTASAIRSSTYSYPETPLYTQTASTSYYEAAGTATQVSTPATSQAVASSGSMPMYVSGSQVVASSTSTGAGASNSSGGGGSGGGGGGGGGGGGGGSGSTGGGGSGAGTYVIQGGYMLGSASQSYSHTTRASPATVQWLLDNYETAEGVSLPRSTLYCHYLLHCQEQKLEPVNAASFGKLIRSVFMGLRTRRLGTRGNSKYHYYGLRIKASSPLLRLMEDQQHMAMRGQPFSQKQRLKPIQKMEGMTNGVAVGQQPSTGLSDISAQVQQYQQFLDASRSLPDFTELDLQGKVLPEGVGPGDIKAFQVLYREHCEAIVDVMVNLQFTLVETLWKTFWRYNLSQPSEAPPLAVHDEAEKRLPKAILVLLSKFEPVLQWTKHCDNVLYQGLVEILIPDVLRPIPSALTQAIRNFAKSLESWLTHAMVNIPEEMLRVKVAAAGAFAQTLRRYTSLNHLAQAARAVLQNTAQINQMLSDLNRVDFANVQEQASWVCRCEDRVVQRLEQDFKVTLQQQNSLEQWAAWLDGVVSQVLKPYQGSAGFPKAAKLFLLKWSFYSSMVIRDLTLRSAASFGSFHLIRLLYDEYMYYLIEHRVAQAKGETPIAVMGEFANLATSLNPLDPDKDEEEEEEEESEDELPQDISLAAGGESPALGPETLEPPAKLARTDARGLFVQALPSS
Put plainly: EMSA; shifted to C2 position; favored over wild-type; EMSA: 1x binding buffer from 10x (50 mM NaCl, 10 mM Tris-HCl pH 7.5, 2.5 mM MgCl2, 4% glycerol, 0.5 mM DTT), 0.05% NP40, poly(dI-dC), 20 ul, room temperature 1. The settings on record: protein: ivt; tags: C-terminal myc in the source clone pCMV-RFX1; chain copies: 2; label: 32P end label (T4 kinase); blunt.

The target in data set [2] is T1, RFX1. Kind of data set: EMSA; EMSA: 1x binding buffer from 10x (50 mM NaCl, 10 mM Tris-HCl pH 7.5, 2.5 mM MgCl2, 4% glycerol, 0.5 mM DTT), 0.05% NP40, poly(dI-dC), 20 ul, room temperature 1. The settings on record: protein: ivt; tags: C-terminal myc in the source clone pCMV-RFX1; chain copies: 2; label: 32P end label (T4 kinase); blunt.

B1: A1613 mutant NRE probe (dsDNA)
DNA 1: GCACGTCGCATGGAAACCACCGTGAACGCC
DNA 2: GGCGTTCACGGTGGTTTCCATGCGACGTGC
Consider B1, for which, in the data set with RFX1 [1], the binding result is on record as “binds”.

B2: NS non-specific oligo (dsDNA)
DNA 1: GGAATTACGTGGCCACTCGAGGGAATTACG
DNA 2: CGTAATTCCCTCGAGTGGCCACGTAATTCC
Regarding B2, in the data set with RFX1 [2], the binding result was “no binding”.

The values above are taken from publication PMC3140978, “The G1613A Mutation in the HBV Genome Affects HBeAg Expression and Viral Replication through Altered Core Promoter Activity”.
